Experimental data reported in PMC9833669.

Molecular target: recombinant extracellular domain of the human AXL protein (tyrosine protein kinase receptor UFO) (human) (UniProt P30530)
Assay: BLI

Substance: GST-VP1u^(1-227aa) (glutathione S-transferase fused to the B19V VP1 unique region) (from UniProt Q9PZT0 1-227) (domain or fragment)
- Kd: 103 nM
